The results in this text go back to the domain aggregation screens of Martell et al. (2025).

The nature of the series: soluble fraction after stress (log2 fold change); higher = more stays soluble; pooled small domains, quantitative proteomics. To be noted: stress: pH 4. The essentials: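 Small protein domains from pooled custom libraries were exposed to pH 4, then quantified with high-throughput quantitative proteomics. The fold change in how much of each domain remains soluble is read as aggregation propensity. It is given as log2, with higher values meaning more stayed soluble.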
Turning to “HMSEQMQVGELVFQLHRKAIKNLHINVLPPDGFVRVSAPQAMTETAIRTAVISRLPWIRRQQQAFAAQ”, the “soluble fraction (log2)” value is at least 0.43. For the sequence “HMSERVVEIDPSQLRPGLFIRLPSGWMNHPFLFNQFRINSAEQVEIIQKLGLKTVQYLPERSSTQALPRA”, the “soluble fraction (log2)” value is -0.644. “HMSESEDFQNRWRPWRSLLDDETPVVREALVDQLKLFPEEGRLFLQQMSEEDDPISARHAFELIKSLGW”: the “soluble fraction (log2)” value was -1.11. On to “HMSETAVTYNEDFEADGSLRPNEQAVLDAFTGVLKLTVSELEKKTGLRNVVPVVASLMAKGAVEVSEELK”, for which the “soluble fraction (log2)” value was -0.763. In the case of “HMSETEWGEIYRKVMAAGLIPARSVRERLLALPSIEPLLQAAEAAGSKGMLDETLLDSLLSKT” it was -0.539; in that of “HMSETLESYTTRLKQLEEIADSFQGVDKTFAIQAGREIRVMVVPEQISDDDMILLARDISNQIEENLDY”, -0.912. For the sequence “HMSEVIYVAEDNVGQRIDVFLVNKLVDASRANIQKNIVDGVILVNNKNVKANYKLRLGDVVEIRTQ”, the “soluble fraction (log2)” value was -0.317. In the case of “HMSEVPAAVLVTGGSINLREAPSTDATIIDVAQVGEKMTVLAEKNSWYQVSRGGRNVWVASWVVDPLT” it was -0.566. In the case of “HMSEVTYQETLRLLRRAIDVLPQQSRQIILLGLSGKNNNEVAEMLGISVNTVKTLKKGAYKSLRNSL” it was -0.281; in that of “HMSEYITEGWLREKFGLGWGTEVHLPLDSRLTPAAHQLLEERKIVIKYIDAEGRVFNPDKSGEEAPVQ”, -0.343; in that of “HMSEYVIVTGEKVNLRVGPGMDYEIAGQVVKGDKLELLASEGDWSKVKTGSGSIYYISSSLVQKA”, -0.334.

On to “HMSFDGFSDRLKSVLNSGKYTQKEAAEKINISEYSFTKYLNGRIPQTEILYKIARLYNKSMEWLLTGKDPI”, for which the “soluble fraction (log2)” value is -0.158.

For the sequence “HMSFGWELYKGKEGIADTDLHPSGWIRIADKRVFAVSEGEFIEKGLEIIVLSVDGNRIVVRELK”, the “soluble fraction (log2)” value was -0.445. Under “HMSFGWETLEGKEGVTDTDLHPSGWVKVGDEKIFVVSQGEFLGKGTDIVVVSVDGNRVVVKELI” stands -1.11; under “HMSFKQARFMMDAANGKALAWLYSHAEVLDRKDQGENIEIHVMISPADLSRFVNAFGYQPVQS”, -0.0667; under “HMSFMFEISVIRSQYNMQDPESKTGFYNAIAKKLLEFPEKLERDNYTEAVAREYMIPETDLKNLVNSMGG”, -1.66. Under “HMSFNGTILSNYQKTYPNLAKFTYDQANDALVYEGNFIKLNGYGLSRIDPVFFNMNPDEIFIFIKNG” stands -2.69; under “HMSFNTNENKNLLWELMNKHNLFKDIDNQHYQEVQKLFEEEIVFISNNNKSLDLVEQNKKFLSSIITKLNK”, -1.2; under “HMSFPQVELNTNKGRIVLELNSEKAPKTVANFLEYVRDGFYDGVIFHRVIDGFMIQGGGFDENFKEKA”, -0.275. Under “HMSFSPYLVRVSITDLNIRKGPGTNYAKTGKFTGKGVFTIVEMQTGKGSDTGWGRLKSGAGWISLDYTEKI” stands 0.0318. “HMSFSQNIGKRIREERLRLNLTQEKLAEDVNLSMAYIGQVERGDRSLTLDNLIIVAKRLGVTIDYLLS”: the “soluble fraction (log2)” value is -0.171. Under “HMSFTSQSVLIEIVRGTTQLTPLAAAVGANKREVVLAVHRLKQRGLVVSAGLGQYAATEAGRAFLTAGREV” stands at least 0.43. On to “HMSFYSVVISQDGSMLVAENRNEIYSNEELLELASEVNEKTGTIGTIGSLMYYKADKGGYTLITFLDNS”, for which the “soluble fraction (log2)” value was -2.05. Under “HMSGALDTVVGIRMLKLLSTPIEKSKAFQVGIINKDGKKLRDPTSGERQHYTFLNRFVFKVQYALMRS” stands -0.072. In the case of “HMSGDYRPLYPNLPESEKSEAFNLLAGSALPARLDDRTGDIMVPADRYYEARMILANAGFAD” it was 0.053.

For “HMSGEMGIIVAKRLPIRSEPDELATRAFVLKAGTRVKIVKHLNGWLEIVHDGKAGYVQDLEVYVRVIG”, the “soluble fraction (log2)” value is -0.445. For the sequence “HMSGEPVKSTLPGNVFKILVAVGDSVKKGQRMFVLEAMKMEIDVNAPKDGLVTSIEVQQGQTVANGQILAK”, the “soluble fraction (log2)” value stood at 0.181.
